Sequences and labels used below:
B1: GpH7-A5/GpH7-B3 variant P271_14T/GpL16-k0 (antibody, human IgG1, kappa)
heavy 1: not shown
heavy 2: not shown
light: DIVMTQSPLSLPVTPGEPASISCQASESLVHSNRNTYLHWYLQKPGQSPQLLIYKVSNRFSGVPDRFSGSGSGTDFTLKISRVEAEDVGVYYCSQNTHVPPTFGQGTKVEIERTVAAPSVFIFPPSDEQLKSGTASVVCLLNNFYPREAKVQWKVDNALQSGNSQESVTEQDSKDSTYSLSSTLTLSKADYEKHKVYACEVTHQGLSSPVTKSFNRGEC
notes: Heterodimerized IgG1; alteration in one H chain only; also called He Ab
B2: GpH7-A5/GpH7-B3 variant N325_07I/GpL16-k0 (antibody, human IgG1, kappa)
heavy 1: not shown
heavy 2: not shown
light: B1 light
notes: as for B1
B3: GpH7-A5/GpH7-B3 variant P271_09D/GpL16-k0 (antibody, human IgG1, kappa)
heavy 1: not shown
heavy 2: not shown
light: B1 light
notes: as for B1
B4: GpH7-A5/GpH7-B3 variant L328_02A/GpL16-k0 (antibody, human IgG1, kappa)
heavy 1: not shown
heavy 2: not shown
light: B1 light
notes: as for B1
B5: GpH7-A5/GpH7-B3 variant N325_08L/GpL16-k0 (antibody, human IgG1, kappa)
heavy 1: not shown
heavy 2: not shown
light: B1 light
notes: as for B1
B6: GpH7-A5/GpH7-B3 variant K326_15Y/GpL16-k0 (antibody, human IgG1, kappa)
heavy 1: not shown
heavy 2: not shown
light: B1 light
notes: as for B1
B7: GpH7-A5/GpH7-B3 variant N325_10E/GpL16-k0 (antibody, human IgG1, kappa)
heavy 1: not shown
heavy 2: not shown
light: B1 light
notes: as for B1
B8: GpH7-A5/GpH7-B3 variant K326_10E/GpL16-k0 (antibody, human IgG1, kappa)
heavy 1: not shown
heavy 2: not shown
light: B1 light
notes: as for B1
B9: GpH7-A5/GpH7-B3 variant K326_07I/GpL16-k0 (antibody, human IgG1, kappa)
heavy 1: not shown
heavy 2: not shown
light: B1 light
notes: as for B1
B10: GpH7-A5/GpH7-B3 variant N325_13S/GpL16-k0 (antibody, human IgG1, kappa)
heavy 1: not shown
heavy 2: not shown
light: B1 light
notes: as for B1
B11: GpH7-A5/GpH7-B3 variant N325_11K/GpL16-k0 (antibody, human IgG1, kappa)
heavy 1: not shown
heavy 2: not shown
light: B1 light
notes: as for B1
B12: GpH7-A5/GpH7-B3 variant N325_14T/GpL16-k0 (antibody, human IgG1, kappa)
heavy 1: not shown
heavy 2: not shown
light: B1 light
notes: as for B1
B13: GpH7-A5/GpH7-B3 variant N325_04F/GpL16-k0 (antibody, human IgG1, kappa)
heavy 1: not shown
heavy 2: not shown
light: B1 light
notes: as for B1
B14: GpH7-A5/GpH7-B3 variant N325_06M/GpL16-k0 (antibody, human IgG1, kappa)
heavy 1: not shown
heavy 2: not shown
light: B1 light
notes: as for B1
B15: GpH7-A5/GpH7-B3 variant N325_02A/GpL16-k0 (antibody, human IgG1, kappa)
heavy 1: not shown
heavy 2: not shown
light: B1 light
notes: as for B1
B16: GpH7-A5/GpH7-B3 variant N325_05P/GpL16-k0 (antibody, human IgG1, kappa)
heavy 1: not shown
heavy 2: not shown
light: B1 light
notes: as for B1

For one experiment, the target named is T1, FcγRIIIa extracellular domain with C-terminal His tag (human, UniProt P08637 17-208).
T1 construct: extracellular domain; also called FcgRIIIa; 3a; not shown: His tag attached to the C terminus
T1 sequence (P08637 17-208): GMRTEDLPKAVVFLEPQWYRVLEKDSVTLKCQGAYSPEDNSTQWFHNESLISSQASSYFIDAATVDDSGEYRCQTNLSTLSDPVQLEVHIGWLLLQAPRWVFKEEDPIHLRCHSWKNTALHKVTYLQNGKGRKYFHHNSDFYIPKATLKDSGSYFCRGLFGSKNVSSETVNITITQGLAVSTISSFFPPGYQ
As to the kind of experiment: SPR (Biacore); He/Con_3a divided by He/Con_2b (reference: binding to FcγRIIb). As to the method:
(§1) Analysis of interaction between objective antibody and the FcγR was carried out using Biacore T100 (GE Healthcare). HBS-EP+ (GE Healthcare) was used as the running buffer, and the measurement temperature was set to 25° C. Chips produced by immobilizing the antigen peptide by the amine coupling method to a Series S Sencor Chip CM5 (GE Healthcare), or alternatively, chips produced by allowing preliminarily biotinylated antigen peptides to interact with and immobilize onto a Series S Sensor Chip SA (certified) (GE Healthcare) were used. Antibodies of interest were captured onto an antigen peptide-immobilized chip, and allowed to interact to each FcγR diluted with running buffer. To regenerate and repeatedly use the chip, the antibodies captured on the chip were washed off by reacting 10 mM glycine-HCl, pH 1.5.
(§2) The FcγR-binding activity of each antibody was assessed primarily using as an indicator the FcγR-binding activity and dissociation constant for FcγR.
Background: In SPR one partner is held on a chip, and binding of the other changes the refractive index at the surface.
In the case of B1, the “He_3a/2b (IIIa/IIb)” value came out at 0.59 ratio.
Still for that read-out and setting: the same measure for B2: 0.17 ratio; for B3: 0.77 ratio.
With B4, the “He_3a/2b (IIIa/IIb)” value was found to be 0.55 ratio.
B5: the “He_3a/2b (IIIa/IIb)” value stood at 0.17 ratio.
With B6, the “He_3a/2b (IIIa/IIb)” value was 0.7 ratio.
The same measure, in the same setting: the same measure for B7: 0.4 ratio; for B8: 0.62 ratio; for B9: 0.7 ratio.
Still for that read-out and setting: with B10 the figure was 0.37 ratio; with B11, 0.5 ratio.
The same measure, in the same setting: with B12 the figure was 0.43 ratio.
On to B13, for which the “He_3a/2b (IIIa/IIb)” value was determined as 0.14 ratio.
Regarding B14, the “He_3a/2b (IIIa/IIb)” value was 0.14 ratio.
The same measure, in the same setting: the same measure for B15: 0.47 ratio.
Same read-out and setting: the same measure for B16: 0.39 ratio.

For another experiment, the target named is T2, FcγRIIb extracellular domain with C-terminal His tag (human, UniProt P31994 43-217).
T2 construct: extracellular domain; also called FcgRIIb; 2b; not shown: His tag attached to the C terminus
T2 sequence (looked up): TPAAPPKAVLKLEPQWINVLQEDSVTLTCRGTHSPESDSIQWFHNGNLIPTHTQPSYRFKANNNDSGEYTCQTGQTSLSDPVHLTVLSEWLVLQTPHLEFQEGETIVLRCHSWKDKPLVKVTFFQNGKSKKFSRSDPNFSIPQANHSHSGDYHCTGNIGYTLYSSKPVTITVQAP
The experiment is described as follows: SPR (Biacore), relative binding. As to the method: as §1, §2
B1: the “He/Con_2b (IIb binding)” value is 95.4 % of GpH7-A5/GpH7-B3/GpL16-k0 (=100).
The same measure, in the same setting: with B2 the figure was 171 % of GpH7-A5/GpH7-B3/GpL16-k0 (=100).
On the same count and under the same terms, the same measure for B3: 120 % of GpH7-A5/GpH7-B3/GpL16-k0 (=100); for B4: 144 % of GpH7-A5/GpH7-B3/GpL16-k0 (=100).
With B5, the “He/Con_2b (IIb binding)” value was 197 % of GpH7-A5/GpH7-B3/GpL16-k0 (=100).
With B6, the “He/Con_2b (IIb binding)” value was 159 % of GpH7-A5/GpH7-B3/GpL16-k0 (=100).
For B7, the “He/Con_2b (IIb binding)” value is 95.9 % of GpH7-A5/GpH7-B3/GpL16-k0 (=100).
The same measure, in the same setting: with B8 the figure was 200 % of GpH7-A5/GpH7-B3/GpL16-k0 (=100); with B9, 199 % of GpH7-A5/GpH7-B3/GpL16-k0 (=100).
Still for that read-out and setting: with B10 the figure was 177 % of GpH7-A5/GpH7-B3/GpL16-k0 (=100); with B11, 10.4 % of GpH7-A5/GpH7-B3/GpL16-k0 (=100); with B12, 91.6 % of GpH7-A5/GpH7-B3/GpL16-k0 (=100).
The same measure, in the same setting: with B13 the figure was 143 % of GpH7-A5/GpH7-B3/GpL16-k0 (=100); with B14, 217 % of GpH7-A5/GpH7-B3/GpL16-k0 (=100); with B15, 64.4 % of GpH7-A5/GpH7-B3/GpL16-k0 (=100).
Take B16: the “He/Con_2b (IIb binding)” value is 26 % of GpH7-A5/GpH7-B3/GpL16-k0 (=100).

In a further experiment the target is T1, FcγRIIIa extracellular domain with …. As to the kind of experiment: SPR (Biacore), relative binding. The protocol:
as §1, §2
B1: the “He/Con_3a (IIIa binding)” value was 56.4 % of GpH7-A5/GpH7-B3/GpL16-k0 (=100).
The same measure, in the same setting: the same measure for B2: 28.7 % of GpH7-A5/GpH7-B3/GpL16-k0 (=100).
Regarding B3, the “He/Con_3a (IIIa binding)” value was 93.1 % of GpH7-A5/GpH7-B3/GpL16-k0 (=100).
Same read-out and setting: the same measure for B4: 79.1 % of GpH7-A5/GpH7-B3/GpL16-k0 (=100); for B5: 33.3 % of GpH7-A5/GpH7-B3/GpL16-k0 (=100); for B6: 112 % of GpH7-A5/GpH7-B3/GpL16-k0 (=100).
Still for that read-out and setting: the same measure for B7: 38.2 % of GpH7-A5/GpH7-B3/GpL16-k0 (=100); for B8: 124 % of GpH7-A5/GpH7-B3/GpL16-k0 (=100); for B9: 139 % of GpH7-A5/GpH7-B3/GpL16-k0 (=100).
As to B10, the “He/Con_3a (IIIa binding)” value is 65.1 % of GpH7-A5/GpH7-B3/GpL16-k0 (=100).
With B11, the “He/Con_3a (IIIa binding)” value is 5.2 % of GpH7-A5/GpH7-B3/GpL16-k0 (=100).
Same read-out and setting: the same measure for B12: 39.4 % of GpH7-A5/GpH7-B3/GpL16-k0 (=100); for B13: 20.7 % of GpH7-A5/GpH7-B3/GpL16-k0 (=100); for B14: 31.4 % of GpH7-A5/GpH7-B3/GpL16-k0 (=100).
Regarding B15, the “He/Con_3a (IIIa binding)” value was 30.5 % of GpH7-A5/GpH7-B3/GpL16-k0 (=100).
Take B16: the “He/Con_3a (IIIa binding)” value is 10.2 % of GpH7-A5/GpH7-B3/GpL16-k0 (=100).

The values are drawn from patent US20180155451A1 (published 2018).
